Measured values reported in article PMC9482650, “Quantitative fragmentomics allow affinity mapping of interactomes” (Nature Communications, 2022).
One block for each binder: values may come before it.

Columns and labels:
Assay in all cases: holdup assay
Design in all cases: key: below the threshold = too weak to quantify, mostly under pKd 3.1 to 4
APBA1_1, Q02410 = target: T1, APBA1_1, Q02410
T1 sequence (Q02410 651-752, limits assumed, looked up): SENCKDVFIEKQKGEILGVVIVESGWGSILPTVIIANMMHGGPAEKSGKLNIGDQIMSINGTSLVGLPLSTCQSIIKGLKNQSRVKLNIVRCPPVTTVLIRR

ARHGAP21, Q5T5U3 = target: T2, ARHGAP21, Q5T5U3
T2 sequence (Q5T5U3 45-169, limits assumed, looked up): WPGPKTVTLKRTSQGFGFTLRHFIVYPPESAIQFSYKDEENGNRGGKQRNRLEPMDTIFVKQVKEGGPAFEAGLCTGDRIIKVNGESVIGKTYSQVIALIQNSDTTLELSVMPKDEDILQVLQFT

ARHGEF12, Q9NZN5-2 = target: ARHGEF12, Q9NZN5-2
Sequence of ARHGEF12, Q9NZN5-2 (Q9NZN5 other isoform, or with tags, fused parts or gaps): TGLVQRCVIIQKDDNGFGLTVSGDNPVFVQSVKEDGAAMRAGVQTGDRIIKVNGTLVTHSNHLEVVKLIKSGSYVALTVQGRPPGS

DFNB31_1, Q9P202 = target: T3, DFNB31_1, Q9P202
T3 sequence (Q9P202 135-233, limits assumed, looked up): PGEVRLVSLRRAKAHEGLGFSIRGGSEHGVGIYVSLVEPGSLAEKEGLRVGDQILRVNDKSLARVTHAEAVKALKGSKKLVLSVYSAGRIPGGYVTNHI

DLG1_1, Q12959 = target: DLG1_1, Q12959
DLG3_1, Q92796 = target: T4, DLG3_1, Q92796
T4 sequence (Q92796 125-227, limits assumed, looked up): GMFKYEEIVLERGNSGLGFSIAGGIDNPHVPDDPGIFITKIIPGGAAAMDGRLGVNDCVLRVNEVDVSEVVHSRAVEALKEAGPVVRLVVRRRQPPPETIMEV

DLG3_3, Q92796 = target: T5, DLG3_3, Q92796
T5 sequence (Q92796 374-475, limits assumed, looked up): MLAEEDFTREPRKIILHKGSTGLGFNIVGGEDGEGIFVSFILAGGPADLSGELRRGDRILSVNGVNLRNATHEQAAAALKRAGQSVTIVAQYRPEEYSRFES

GORASP1, Q9BQQ3 = target: GORASP1, Q9BQQ3
Sequence of GORASP1, Q9BQQ3 (Q9BQQ3 1-208): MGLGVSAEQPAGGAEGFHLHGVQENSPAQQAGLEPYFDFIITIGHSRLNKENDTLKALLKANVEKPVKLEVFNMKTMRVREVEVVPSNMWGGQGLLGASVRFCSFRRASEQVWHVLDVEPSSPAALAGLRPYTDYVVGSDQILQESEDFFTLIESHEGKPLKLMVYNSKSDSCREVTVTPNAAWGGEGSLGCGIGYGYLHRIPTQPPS

GORASP2, Q9H8Y8 = target: GORASP2, Q9H8Y8
HTRA3, P83110 = target: T6, HTRA3, P83110
T6 sequence (P83110 354-453, limits assumed, looked up): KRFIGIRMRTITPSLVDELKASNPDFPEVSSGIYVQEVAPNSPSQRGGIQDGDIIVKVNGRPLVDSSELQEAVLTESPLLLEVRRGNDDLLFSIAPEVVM

HTRA4, P83105 = target: T7, HTRA4, P83105
T7 sequence (P83105 378-476, limits assumed, looked up): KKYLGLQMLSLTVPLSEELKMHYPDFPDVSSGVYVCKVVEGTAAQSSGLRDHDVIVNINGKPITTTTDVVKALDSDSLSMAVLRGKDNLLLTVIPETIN

LIMK2, P53671 = target: LIMK2, P53671
Sequence of LIMK2, P53671 (P53671 143-248): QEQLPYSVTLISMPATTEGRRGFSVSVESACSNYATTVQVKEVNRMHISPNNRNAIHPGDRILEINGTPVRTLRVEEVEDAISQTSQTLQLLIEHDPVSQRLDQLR

LNX1_1, Q8TBB1 = target: LNX1_1, Q8TBB1
Sequence of LNX1_1, Q8TBB1 (Q8TBB1 261-371): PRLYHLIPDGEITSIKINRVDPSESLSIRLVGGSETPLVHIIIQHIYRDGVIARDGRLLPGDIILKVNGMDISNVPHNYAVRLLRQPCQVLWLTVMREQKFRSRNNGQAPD

LNX1_3, Q8TBB1 = target: LNX1_3, Q8TBB1
Sequence of LNX1_3, Q8TBB1 (Q8TBB1 500-596): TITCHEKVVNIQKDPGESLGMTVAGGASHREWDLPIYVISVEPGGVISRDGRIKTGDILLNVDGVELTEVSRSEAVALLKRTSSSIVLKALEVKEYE

MAGI1_1, Q96QZ7 = target: MAGI1_1, Q96QZ7
Sequence of MAGI1_1, Q96QZ7 (Q96QZ7 1-106): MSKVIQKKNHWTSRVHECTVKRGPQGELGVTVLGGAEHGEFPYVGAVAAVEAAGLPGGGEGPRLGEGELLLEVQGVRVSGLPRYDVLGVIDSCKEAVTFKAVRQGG

MAGI2_6, Q86UL8 = target: MAGI2_6, Q86UL8
Sequence of MAGI2_6, Q86UL8 (Q86UL8 1141-1229): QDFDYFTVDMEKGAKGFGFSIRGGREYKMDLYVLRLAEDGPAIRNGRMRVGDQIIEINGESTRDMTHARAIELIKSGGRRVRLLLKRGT

MPDZ_5, O75970 = target: T8, MPDZ_5, O75970
T8 sequence (O75970 695-796, limits assumed, looked up): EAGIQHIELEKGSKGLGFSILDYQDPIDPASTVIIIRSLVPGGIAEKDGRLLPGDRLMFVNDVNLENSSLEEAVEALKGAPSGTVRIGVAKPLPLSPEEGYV

MPP6, Q9NZW5 = target: T9, MPP6, Q9NZW5
T9 sequence (Q9NZW5 125-219, limits assumed, looked up): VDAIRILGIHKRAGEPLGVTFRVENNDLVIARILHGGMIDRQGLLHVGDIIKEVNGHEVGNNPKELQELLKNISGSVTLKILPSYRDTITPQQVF

NHERF3_3, Q5T2W1 = target: T10, NHERF3_3, Q5T2W1
T10 sequence (Q5T2W1 238-333, limits assumed, looked up): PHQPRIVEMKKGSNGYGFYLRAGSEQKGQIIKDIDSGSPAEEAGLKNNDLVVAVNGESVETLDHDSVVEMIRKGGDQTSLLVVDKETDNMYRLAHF

PCLO, Q9Y6V0 = target: T11, PCLO, Q9Y6V0
T11 sequence (Q9Y6V0 4491-4600, limits assumed, looked up): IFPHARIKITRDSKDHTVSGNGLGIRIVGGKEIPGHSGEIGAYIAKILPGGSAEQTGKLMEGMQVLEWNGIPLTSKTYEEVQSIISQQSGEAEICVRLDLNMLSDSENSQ

PDZRN4_1, Q6ZMN7 = target: PDZRN4_1, Q6ZMN7
Sequence of PDZRN4_1, Q6ZMN7 (Q6ZMN7 213-318): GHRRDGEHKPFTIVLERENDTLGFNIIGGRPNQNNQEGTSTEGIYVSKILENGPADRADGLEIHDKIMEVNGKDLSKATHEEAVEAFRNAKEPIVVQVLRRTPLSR

PTPN3, P26045 = target: PTPN3, P26045
Sequence of PTPN3, P26045 (P26045 505-587): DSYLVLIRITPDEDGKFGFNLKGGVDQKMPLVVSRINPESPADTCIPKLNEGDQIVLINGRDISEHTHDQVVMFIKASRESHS

RHPN1, Q8TCX5 = target: T12, RHPN1, Q8TCX5
T12 sequence (Q8TCX5 508-602, limits assumed, looked up): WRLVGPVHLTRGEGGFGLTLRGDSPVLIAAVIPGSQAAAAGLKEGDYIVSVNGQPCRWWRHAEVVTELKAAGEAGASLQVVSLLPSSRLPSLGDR

TJP3_3, O95049 = target: T13, TJP3_3, O95049
T13 sequence (O95049 375-456, limits assumed, looked up): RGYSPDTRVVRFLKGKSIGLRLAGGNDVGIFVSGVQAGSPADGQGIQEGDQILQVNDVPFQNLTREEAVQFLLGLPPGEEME

[1] = plain residues with an end cap or a label only (N-terminal biotin on a linker: ado-ado)
[2] = plain residues with an end cap or a label only (N-terminal biotin on a linker: ahx)

pKd (APBA1_1, Q02410; [1]): below the threshold
pKd (ARHGAP21, Q5T5U3; [1]): 3.95
pKd (ARHGEF12, Q9NZN5-2; [1]): 3.88
pKd (DFNB31_1, Q9P202; [1]): 4.17
pKd (DLG1_1, Q12959; [1]): 4.09
pKd (DLG3_1, Q92796; [1]): 3.61
pKd (DLG3_3, Q92796; [1]): below the threshold
pKd (GORASP1, Q9BQQ3; [1]): 4.07
pKd (GORASP2, Q9H8Y8; [1]): 4.11
pKd (HTRA3, P83110; [1]): below the threshold
pKd (HTRA4, P83105; [1]): 4.01
pKd (LIMK2, P53671; [1]): below the threshold
pKd (LNX1_1, Q8TBB1; [1]): 3.73
pKd (LNX1_3, Q8TBB1; [1]): 3.68
pKd (MAGI1_1, Q96QZ7; [1]): below the threshold
pKd (MAGI2_6, Q86UL8; [1]): 4.09
pKd (MPDZ_5, O75970; [1]): below the threshold
pKd (MPP6, Q9NZW5; [1]): below the threshold
pKd (NHERF3_3, Q5T2W1; [1]): 3.87
pKd (PCLO, Q9Y6V0; [1]): below the threshold
pKd (PDZRN4_1, Q6ZMN7; [1]): below the threshold
pKd (PTPN3, P26045; [1]): below the threshold
pKd (RHPN1, Q8TCX5; [1]): 4.35
pKd (TJP3_3, O95049; [1]): below the threshold
Binder: RDPPAEWTRV [PTPN18, Q99952]

pKd (APBA1_1, Q02410; [2]): below the threshold
pKd (ARHGAP21, Q5T5U3; [2]): below the threshold
pKd (ARHGEF12, Q9NZN5-2; [2]): below the threshold
pKd (DFNB31_1, Q9P202; [2]): below the threshold
pKd (DLG1_1, Q12959; [2]): below the threshold
pKd (DLG3_1, Q92796; [2]): below the threshold
pKd (DLG3_3, Q92796; [2]): below the threshold
pKd (GORASP1, Q9BQQ3; [2]): below the threshold
pKd (GORASP2, Q9H8Y8; [2]): below the threshold
pKd (HTRA3, P83110; [2]): below the threshold
pKd (HTRA4, P83105; [2]): below the threshold
pKd (LIMK2, P53671; [2]): below the threshold
pKd (LNX1_1, Q8TBB1; [2]): below the threshold
pKd (LNX1_3, Q8TBB1; [2]): below the threshold
pKd (MAGI1_1, Q96QZ7; [2]): below the threshold
pKd (MAGI2_6, Q86UL8; [2]): below the threshold
pKd (MPDZ_5, O75970; [2]): below the threshold
pKd (MPP6, Q9NZW5; [2]): below the threshold
pKd (NHERF3_3, Q5T2W1; [2]): below the threshold
pKd (PCLO, Q9Y6V0; [2]): below the threshold
pKd (PDZRN4_1, Q6ZMN7; [2]): below the threshold
pKd (PTPN3, P26045; [2]): 4.25
pKd (RHPN1, Q8TCX5; [2]): below the threshold
pKd (TJP3_3, O95049; [2]): below the threshold
Binder: EKQAKGDTEF [CACYBP, Q9HB71]

pKd (APBA1_1, Q02410; [1]): 3.56
pKd (ARHGAP21, Q5T5U3; [1]): 4.49
pKd (ARHGEF12, Q9NZN5-2; [1]): below the threshold
pKd (DFNB31_1, Q9P202; [1]): below the threshold
pKd (DLG1_1, Q12959; [1]): below the threshold
pKd (DLG3_1, Q92796; [1]): below the threshold
pKd (DLG3_3, Q92796; [1]): 3.63
pKd (GORASP1, Q9BQQ3; [1]): 4.08
pKd (GORASP2, Q9H8Y8; [1]): 4.7
pKd (HTRA3, P83110; [1]): 4.68
pKd (HTRA4, P83105; [1]): 3.81
pKd (LIMK2, P53671; [1]): 3.5
pKd (LNX1_1, Q8TBB1; [1]): 3.75
pKd (LNX1_3, Q8TBB1; [1]): below the threshold
pKd (MAGI1_1, Q96QZ7; [1]): below the threshold
pKd (MAGI2_6, Q86UL8; [1]): 3.81
pKd (MPDZ_5, O75970; [1]): below the threshold
pKd (MPP6, Q9NZW5; [1]): 4.05
pKd (NHERF3_3, Q5T2W1; [1]): below the threshold
pKd (PCLO, Q9Y6V0; [1]): below the threshold
pKd (PDZRN4_1, Q6ZMN7; [1]): below the threshold
pKd (PTPN3, P26045; [1]): 4.36
pKd (RHPN1, Q8TCX5; [1]): 3.5
pKd (TJP3_3, O95049; [1]): 3.6
Binder: SLNANEVEWF [RNF130, Q86XS8]
